{"source": "patent US20240132577A1", "molecular_target": "SARS-CoV-2 RBD (reagent of the GenScript sVNT kit L00847) (SARS-CoV-2), P0DTC2", "conditions": "remark: other sources report otherwise"}
{"binder": "Nb21 (VHH) QVQLVESGGGLVQAGGSLRLSCAVSGLGAHRVGWFRRAPGKEREFVAAIGANGGNTNYLDSVKGRFTISRDNAKNTIYLQMNSLKPQDTAVYYCAARDIETAEYTYWGQGTQVTVSS", "values": [{"measurement": "Inhibition Rate (%)", "result": 14, "unit": "%"}]}
